Biological target: TolAIII, C-terminal domain of E. coli TolA (residues 302-421) with N-terminal His6 tag (E. coli) (UniProt P19934)
Test: SPR

Chain of UniProt P19934 (P19934 302-421): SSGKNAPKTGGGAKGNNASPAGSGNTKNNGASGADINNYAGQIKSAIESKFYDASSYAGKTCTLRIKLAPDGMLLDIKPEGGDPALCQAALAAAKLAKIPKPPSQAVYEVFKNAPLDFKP

- Kd: 1340 nM
Substance: TA53-107, residues 53-107 of the translocation domain of colicin A (from UniProt P04480 53-107) (domain or fragment)

— article PMC3365938
